For orientation: stoichiometry N means a count of units in the complex or per binding partner.

The target of assay [1] is AgsA (aggregation-suppressing protein, small heat shock protein), wild type, His-tagged (Salmonella enterica serovar Typhimurium). The assay can be described thus: FRET or BRET; data not shown; subunit exchange of fluorescein- and rhodamine-labelled AgsA at 45°C, 40 min. For orientation: In BRET a luciferase serves as donor, and the signal depends on an acceptor being close.

Assay [2] has the same target. The assay can be described thus: SEC; Superdex 200 XK 16/70, 20 mM Tris-HCl pH 8.0, 1 mM EDTA, 100 mM NaCl, run at 25°C; apparent mass from a calibration curve. (In general: In gel filtration, larger molecules generally elute earlier.)
Assay [3] concerns the target ΔC11, C-terminal 11 AA truncated AgsA, His-tagged (Salmonella enterica serovar Typhimurium). Description: SEC.
Assay [4] has the same target. The assay can be described thus: SEC; Superdex 200 XK 16/70, 20 mM Tris-HCl pH 8.0, 1 mM EDTA, 100 mM NaCl, run at 37°C.
Assay [5] has the same target. The assay can be described thus: SEC; Superdex 200 XK 16/70, 20 mM Tris-HCl pH 8.0, 1 mM EDTA, 100 mM NaCl, run at 42°C.

In assay [1], “AgsA (aggregation-suppressing protein, small heat shock protein), wild type, His-tagged (natural protein)” returned a decrease in donor fluorescence after 40 min of 40%. The stoichiometry N in assay [2] is 22 subunits.
Take “ΔC11, C-terminal 11 AA truncated AgsA, His-tagged (domain or fragment)”: the results for the stoichiometry N in assay [3], in assay [4] and in assay [5] were 3 subunits, 2 subunits and 2 subunits, respectively.

These data come from paper PMC2920228.
